A short description of the series: label from the status in PepcDB records.
Consider “MVRLAEERDFPGFLGLAGQVEHWFGPMVEDAGFHEAVREHIRRGAALVAVAPDPDTDAGPGAGTGTELLGGLLFGTDTDADAPVHHVHWLVVSRQARAGGVGRALMRDAMRRWVREPAGVEVVTFGADHPGATESGARAFYERLGFTPAEVVAPGPEGGSRQLFRRGAQVRPTRGEHVTTYTGGPA”, for which the protein production result is “failed”.
Under “MVRLTPFYKKLSILFVEDEREVQEAALNVLERYIDHILVASDGEEALAIFKEKRPDIVITDIKMPVMDGLALTKEIKELGDTPVIVISAFDNEEFVSEAARLGVETYLLKPIDIQLLLASINRCIELLIRREEARQNRSLLREYKRIVDETAMICKIDLDKTITYANEAFCQISGYSKEELTGKIYRHMVSPRQDLSRLDGGLWVNVLRGKSWKGMIELLNKKGEPYFIQASMFPLFDADGKITELIALQFDITEHIKTKQILEKQNQKLEHIAHTDTLTGVWNRYKFNKILRQEIKCAKSSNHPFSLMLLDVDRFKTINDTHGHQFGDRVLKAITSTLKRQLKHKEAMIARWGGEEFIVLAQGYRLAQALELAERLRAAIEGMEFENIPITSSFGVTEFSPEDELDTLVRRADLALYTAKESGRNRIISY” stands “failed”; under “MVRRLACKRAYRFRFYPTPEQEQLLRRTVGCCRKVYNLALEARSTAWTAERRSITYVQTSAMLTQWKQTAEYSYMNEVSCVPLQQALRHLQTAFSNFFKQTGDYPRFKAKSHGGSAEYTRSAFTWDAKRNELTLAKMRGPLPIRWSRTLPRKTEPSTVTVSLDAAGRWHVSILVEEAIRPLPARGDAVGIDLGVDSYAVTSDGETIANPRHYRKLAERLEREQRALSRKTKGGNNRRKAALKVARTYARITDMRRDFLHKLSTRIIRENQTVVLEDLNVRNMARRCAPKPDPDNPNHWLPNGQSAKNGLNGSIMDAGWSEFRRMLEYKAEWYGRKLITIDRYYPSTQICSHCGAKTGPKGMPGLTVRAWTCPDCGTTHDRDLNAAENILAAGLAVSVCKDGRTGTKVSH”, “failed”; under “MVRVFNHWFSPRKAFYFFAEETVLVVALLAGASLGPVAAQATGAAAPIAPAVLRAGLASLFFAGALYLGDLYDLHAAVRDRADGRRLLRALGVATIALAIADLSLDLVLPGWMLHRSVVLAAAGGALGVIGARALMPAVVGAPTRVLFLGAGPRARDLARAVEREADGLWAVAGFVVPEGSRAPAVVPPEALRQGPVLDVVRQARAQVVVVAMEDRREGLPVDALLALRTRGLRVVDDVGFAEATLQRIPLALVRPSALIFDEGFRVSRLTRTVKRALDLGVSAVGLLLGAPVMAAVAAAIWLSDGRPLLYSQERTGRGGRPYRIWKFRTMRRDAEKLGAAWATDDDPRVLPVGRFLRRARLDELPQLWNVLGGHMSLVGPRPERAVFLSELKARWPLFALRELVKPGLTGWAQLRYGYGSTMEEQAKKLEYDLYYIKNTTLFLDLVCLLATAKVVLLGRGAR”, “failed”.
Turning to “MVSLTKRCIAEFIGTFILVFFGAGSAAVTLMIASGGTSPNPFNIGIGLLGGLGDWVAIGLAFGFAIAASIYALGNISGCHINPAVTIGLWSVKKFPGREVVPYIIAQLLGAAFGSFIFLQCAGIGAATVGGLGATAPFPGISYWQAMLAEVVGTFLLMITIMGIAVDERAPKGFAGIIIGLTVAGIITTLGNISGSSLNPARTFGPYLNDMIFAGTDLWNYYSIYVIGPIVGAVLAALTYQYLTSE”, the protein production result is given as “not failed”.
With “MVSLTMVPIDALLSKEVNAFIVQHKHASVAELMLRMPVFTVDSRWIAAQIEGWQKASQKLPLWASTENIIYPIRLSMEQCSSERTAHYKSTLMSGERLVDLTGGFGVDSFYLSKSFNEVIYIEQQEDLAEIAAHNFSTLNQNNIVVKTADSDEYLKDIAEKIDVIFLDPARRKEMRKVYKLSDCEPNVVALQSFYFSKADVILIKTSPMLDITEATRQLTGIKEIHVVSVDNECKEVLYLLEKNYSGKATYICAHDYKKQLQLFSFTIAAEQAVTLSYSAPLAYLYEPNPSILKAGGFNSITQKYEVFKLHASSHLYTSASEVSDFPGRTFKIKETVGYSKKDIQAAVPGGKANIQTRNFPDSVEAIRKKTGLKDGGNIFIFATTLHDLSKVLLICEKI”, the protein production result was “failed”.
Under “MVSMLTRIRRQIKRVIEPLAKTLAQLKVSANFITMLGLIFAIVYYFEIMRSNTTLGIIFLVFSALMDAIDGEVARVSKTVSPLGSFLDSTLDRIEDILYISAFIFLGFSSYLVAIAVGLSLTISYIRAKAESLGLKMEGRGIIERGERIIFVFVILLLYIIVSKQVSLYLFYLFMLLTAITVIQRFYAVYSLLRK” stands “failed”.

For the origin of these results see a protein production outcome set (Wang et al. 2014).
